# Laboratory results from patent US20220228157A1, “GENE EDITING IN DIVERSE BACTERIA” (priority 2019, published 2022).
# B1: N003: SSAP candidate (protein, listed as Escherichia coli)
# chain: MTKQPPIAKADLQKTQGNRAPAAVKNSDVISFINQPSMKEQLAAALPRHMTAERMIRIATTEIRKVPALGNCDTMSFVSAIVQCSQLGLEPGSALGHAYLLPFGNKNEKSGKKNVQLIIGYRGMIDLARRSGQIASLSARVVREGDEFSFEFGLDEKLIHRPGENEDAPVTHVYAVARLKDGGTQFEVMTRKQIELVRSLSKAGNNGPWVTHWEEMAKKTAIRRLFKYLPVSIEIQRAVSMDEKEPLTIDPADSSVLTGEYSVIDNSEE
# B2: PF074: SSAP candidate (protein, listed as Rhizobium loti)
# chain: MMNAITTYTHSPRQLALIQKTVAKDCNTDEFNLFVEVARAKGLDPFLGQIIPMIFSKGDSNKRKMTIIISRDGQRVIAQRCGDYRPASKPPSYEFDAELKSETNPQGIVSATVYLWKQDAKTAAWFEVAGQSYWDEFAPISYPYDAYKMVDTGETWEDSGKPKKKRVLRDGATPQLDDSGNWCRMPRLMIAKCAEMQALRAGWPEQFTGLYDEAEMDRAKVLEMAASEIVAHEQEENRLRLVAGNDAITMSWGDGWALENVPAGEFMDRCLAFIRESDHQTVVKWNSANRAGLQLFWAKHPGDALELKKAIEKASRAPVEIDHIADAARREIAQHPVSAG
# B3: LrpRecT: RecT variant known to enable high genome editing efficiency in L. lactis (protein)
# chain: MANQVAQQQKPTKLTDLVLDRVKQMQDTQDLSLPKNYNASNALNAAFLELQKVQDRNHRPALEVCSHDSIVKSLLDMTLQGLSPAKDQCYFIVYGNELQMQRSYFGTVAAVKRLDGVKKVRAEVVHEKDDFEIGANEDMELVVKRFVPKFENQDNQIIGAFAMIKTDEGTDFTVMTKKEIDQSWAQTRQKNNKVQQNFSQEMAKRTVLNRAAKMFINTSDDSDLLTGAINDTTSNEYDDERRDVTPVEDEKQSTDKLLEGFQKSQEAKAKWVSNDGNSNEGKETSEEVADGQTELFSEGTIKPADEADS
# B4: MspRecT: RecT variant known to enable high genome editing efficiency in M. smegmatis (protein)
# chain: MAENAVTKQDSPKAPETISQVLQVLVPQLARAVPKGMDPDRIARIVQTEIRKSRNAKAAGIAKQSLDDCTQESFAGALLTSAALGLEPGVNGECYLVPYRDTRRGVVECQLIIGYQGIVKLFWQHPRASRIDAQWVGANDEFHYTMGLNPTLKHVKAKGDRGNPVYFYAIVEVTGAEPLWDVFTADEIRELRRGKVGSSGDIKDPQRWMERKTALKQVLKLAPKTTRLDAAIRADDRPGTDLSQSQALALPSTVKPTADYIDGEIAEPHEVDTPPKSSRAQRAQRATAPAPDVQMANPDQLKRLGEIQKAEKYNDADWFKFLADSAGVKATRAADLTFDEAKAVIDMFDGPNA
# B5: L1SSB: single-stranded binding protein from L. lactis (protein)
# chain: MINNVVLVGRITRDPELRYTPQNQAVATFSLAVNRQFKNANGEREADFINCVIWRQQAENLANWAKKGALIGVTGRIQTRNYENQQGQRVYVTEVVADSFQMLESRSARDGMGGGASAGSYSAPSQSTNNTPRPQTNNNSATPNFGRDADPFGSSPMEISDDDLPF
# B6: PF071: SSAP candidate (protein)
# chain: MALTPGLVTLNHAKIMSNESTDKLDLPQAPVPKKTLYEIVMSEDVKTHITQFVEGMMTPERCISIFWNCCQKTPLLQQCAPITLISSLKNLLLMRCEPDGIHGYLVPFWVNDKRTGNSILTCAPVPSARGLMRMARSNGVTNLNIGIVREGEPFSWRLDDGKFTMGHIPGWGDNEDPIRGFYCTWTDKDSYLHGERMSLKAVEEIKGRSKSKNKKGEIVGPWVTDFGQMGLKTVIKRASKQWDLPLVIQAAMQAADDQEFEGNMRNVTPEKTDGPAEGETPWNNAPAPEAFQNDQPEALPEPKPEGQDDLIPGLKMPAPKETATVNMEDY
# modifications: Akkermansia sp KLE1798
# notes: SSAP candidate
# B7: PF076: SSAP candidate (protein)
# chain: MTGPELAAAAKQTAQQAGSATVKKFFEANRGTLEALLPRHFDSERMLKLALGALRTTPKLANASLSSLLGSVVTCAQLGLEPNTPLGHAYLLPFDKREKQNGQWVTVETQVQVIIGYKGMLDLARRSGQIVSIAAHEVCQNDEFVFAYGLNEELVHRPAMKDRGPVIGFYAVAKLTGGGYSFEFMSVDEVNHIRDKAAEKNRAKRDAAGNPIITGPWADNYVEMGRKTVLRRLFKYLPISIESLAFASAVDGQAIREPAPLEQVAFESSEPAEEPTSYDQQDEDLRALEQSQPARVPPVQVEQPAEAWQPSAEEAAELERQQAAEAAADQQRASAPRGRGQRSMSLE
# modifications: Methyloversatilis universalis (strain ATCC BAA-1314 / JCM 13912 /FAM5)
# notes: SSAP candidate
# B8: SR063: SSAP candidate (protein)
# chain: MHLIHQSGEVKMQLSPETNEILPALFNARNKFAKAKKDAKNNHLKNSYATLDAMMAAVSPALTDNDIMILQSMLDTSTETTFHLETMLIHKSGQWAKFFMMMPIAKRDPQGVGSAMTYARRYSLAAALGISQSDDDAQLAVKSVKDWKKELDACEDIESLKDVWANAYRQTDTASKSIIQDHYNALKAKFEIGKARGIRPAQPEQKKQVEATSAKPVQSQSITNFE
# modifications: Bacteriophage T1
# notes: SSAP candidate
# Columns and labels:
# [1] = biological target: L. lactis single-stranded binding protein (LlSSB) (L. lactis) (UniProt Q9CDM9); assay: cell-based or functional assay
# [2] = biological target: PaSSB (Pseudomonas aeruginosa single-stranded binding protein) (Pseudomonas aeruginosa) (UniProt P40947); assay: cell-based or functional assay; conditions: scale: fold improved over the RecT protein alone
# [3] = tested on: 90 bp oligos pre-coated with SSB; assay: Oligonucleotide annealing and quenching in vitro; format: biochemical; conditions: two 90 bp oligos pre-coated with SSB
# Source text: It was first whether two 90 bp oligos could anneal if they were pre-coated with SSB. SSBs was purified from E. coli (gram-negative), where most recombineering work has been performed, and L. lactis (gram-positive), a lactic acid bacterium phylogenetically distantly related to E. coli. […] It was next tested capacity of a phage RecT protein to overcome this SSB-mediated inhibition of annealing. Thus, Redβ, which is not broadly portable, but mediates efficient oligonucleotide annealing in E. coli, was purified. […] These preliminary results gave us an indication that while bacterial SSBs inhibit oligonucleotide annealing in vitro, RecTs overcome the inhibitory effect in an SSB-specific manner.
# Fluorescent (tolC-r.null.mut-3′FAM) and quenching (tolC-f.null.mut-5′IBFQ) oligos were ordered from Integrated DNA Technologies. Unless otherwise indicated, 50 nM of each oligo was incubated in 25 mM TRIS-HCl pH 7.4 with 1.0 μM Ec_SSB or Ll_SSB at 30° C. for 30 minutes. 100 μl of each oligo mixture were then combined into a 96-well clear-bottom black assay plate (Costar), incubated a further 60 minutes at 30° C., and annealing was tracked on a Synergy H4 microplate reader (BioTek) with fluorescence excitation set to 495 nm and emission set to 520 nm. After 60 minutes, 20 μl of a solution with or without 25 μM Redβ and containing 100 mM MgCl2 was added to achieve a final reaction concentration of 2.5 μM Redβ and 10 mM MgCl2. The annealing was then tracked over 10 hours in a the Synergy H4 microplate reader with the setting indicated above.
# [4] = tested on: Agrobacterium tumefaciens; assay: SSAP candidate enrichment; format: cell-based
# Method: (§1) The editing efficiency of SSAP candidates was also tested in Agrobacterium tumefaciens and in Staphylococcus aureus using the methods described above.
# E. coli = assay: Allelic recombination frequency, selective vs non-selective plates; format: cell-based, Escherichia coli; conditions: RecT alone
# Method: (§2) Four variants known to enable high genome editing efficiency were selected (Redβ and PapRecT in E. coli, LrpRecT in L. lactis, and MspRecT in M. smegmatis), and tested codon optimized versions of all four in both E. coli (gram-negative), and L. lactis (gram-positive). Genome editing efficiency was measured by introducing oligos encoding known antibiotic resistance mutations, and compared the antibiotic resistant cell counts to the total number of viable cells in the population (FIGS. 17E-17F). […] In L. lactis, LrpRecT was the only functional homolog, and improved oligo incorporation 7,700-fold, while the three other RecT variants were nearly non-functional, improving oligo incorporation less than 7-fold (FIG. 17H). No RecT protein functioned well both in E. coli and L. lactis.
# A single colony of E. coli was grown overnight to saturation. In the morning 30 μL of dense culture was inoculated into 3 mL of fresh media and grown for 1 hour. To induce gene expression of the pARC8 vector for recombineering experiments, L-arabinose was added to a final concentration of 0.2% (w/v) and the cells were grown an additional hour. 1 mL of cells were pelleted at 4° C. by centrifugation at 12,000×g for 2.5 minutes and washed twice with 1 mL of ice-cold dH2O. Cells were resuspended in 50 μL ice-cold dH2O containing DNA and transferred to a pre-chilled 0.1 cm electroporation cuvette.
# (§3) Electrocompetent cells were electroporated with 90-mer oligos at: 1 uM for E. coli, 50 μg for L. lactis, and 10 uM for C. crescentus. 70-mer oligos were used at 1 μg for M. smegmatis. All oligos were obtained from IDT and can be found under “Oligonucleotides for genome editing” in materials and methods. For dsDNA experiments L. lactis was electroporated with 1.5 μg purified linear dsDNA. Cells were electroporated using a Bio-Rad gene pulser set to 25 μF, 200 S2, and 1.8 kV for E. coli, 2.0 kV for L. lactis, and 1.5 kV for C. crescentus and to 1000Ω and 2.5 kV for M. smegmatis. Immediately after electroporation, cells were recovered in fresh media for 3 hours for E. coli, 1 hour for L. lactis, overnight for M. smegmatis and overnight for C. crescentus. L. lactis recovery media was supplemented with MgCl2 and CaCl2) at a concentration of 20 mM and 2 mM, respectively. E. coli recovery media was supplemented with carbenicillin. M. smegmatis recovery media was supplemented with hygromycin. C. crescentus recovery media was supplemented with 0.3% xylose and kanamycin. After recovery, the cells were serial diluted and plated on non-selective vs. selective agar plates to obtain approximately 50-500 CFU/plate. Colonies were counted using a custom script in Fiji, and allelic recombination frequency was calculated by dividing the number of colonies on selective plates, with the number of colonies on non-selective plates.
# L. lactis = assay: as above; format: cell-based, Lactococcus lactis; conditions: RecT alone
# Method: as §2
# A single colony of L. lactis was grown overnight to saturation. 500 μL of dense culture was inoculated into 5 mL of fresh media, supplemented with 500 mM sucrose and 2.5% (w/v) glycine, and grown for 3 hours. To induce gene expression of the pJP005 vector for recombineering experiments, the cells were grown for an additional 30 min after adding 1 ng/mL freshly diluted nisin, unless stated otherwise. For the optimized condition (FIG. 20B), 10 ng/mL nisin was used. Cells were pelleted at 4° C. by centrifugation at 5,000×g for 5 minutes and washed twice with 2 mL of ice-cold electroporation buffer (500 mM sucrose containing 10% (w/v) glycerol) by centrifugation at 13,200×g for 2.5 minutes. Cells were resuspended in 80 μL ice-cold electroporation buffer containing DNA and transferred to a pre-chilled 0.1 cm electroporation cuvette.
# as §3
# L. rhamnosus = format: cell-based
# Method: Finally, the model for RecT was used to establish recombineering in L. rhamnosus, a well-studied probiotic used to treat a variety of illnesses including diarrhea and bacterial vaginosis. Although the L. rhamnosus SSB and L. lactis SSB only have 47% identity, they share identical SSB C-terminal tail 7 amino acids. It was determined whether LrpRecT (which functions in L. lactis) is portable to L. rhamnosus, while the other RecT proteins would not be functional.
# Staphylococcus aureus = assay: SSAP candidate enrichment; format: cell-based
# Method: as §1
molecule,measurement,setting,value
PapRecT,genome editing efficiency in L. lactis (fold less than the cognate pair),[1],135
same,"editing efficiency in L. lactis, pair against the RecT protein alone",[2],1170
MspRecT,genome editing efficiency in L. lactis (fold lower than the cognate pair),[1],33
EcSSB: single-stranded binding protein from E. coli [reference compound],Effect of SSB on oligonucleotide annealing,[3],completely inhibited oligonucleotide annealing
B1,Editing efficiency (enrichment) relative to other SSAP candidates,[4],increase in editing efficiency
B2,Editing efficiency (enrichment) relative to other SSAP candidates,[4],increase in editing efficiency
B3,Improvement of oligo incorporation,E. coli,5.6 fold
same,Improvement of oligo incorporation,L. lactis,"7,700 fold"
same,Oligonucleotide incorporation,L. rhamnosus; L. rhamnosus,three orders of magnitude above the background level
B4,Improvement of oligo incorporation,E. coli,290 fold
same,Toxicity in L. rhamnosus,L. rhamnosus,toxic
B5,Effect of SSB on oligonucleotide annealing,[3],completely inhibited oligonucleotide annealing
B6,Editing efficiency (enrichment) relative to other SSAP candidates,[4],increase in editing efficiency
B7,Editing efficiency (enrichment) relative to other SSAP candidates,[4],increase in editing efficiency
B8,Editing efficiency (enrichment) relative to other SSAP candidates,Staphylococcus aureus,increase in editing efficiency
